Earlier results as cited in article PMC4517114.
Where two headings read alike, the source gives them in different places.

How the values were obtained:
[1] = target: MAGI-1 PDZ (Homo sapiens) (UniProt Q96QZ7)
[2] = target: MAGI-1 PDZ (Homo sapiens) (UniProt Q96QZ7); remark: listed apart in the source

Sequence of UniProt Q96QZ7 (Q96QZ7 472-554): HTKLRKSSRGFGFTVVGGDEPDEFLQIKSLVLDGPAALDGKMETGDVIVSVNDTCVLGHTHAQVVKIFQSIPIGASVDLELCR

Row | Substance | Kd [1] [nM] | Kd [2] [nM]
1 | HPV16 E6 (from UniProt P03126) | 3000 | –
2 | HPV18 E6 (from UniProt P06463) | – | 1500
